Experimental findings from the Human Domainome abundance scans (Beltran et al. 2025) are described below.

± gives the uncertainty stated by the source.

A short description of this data set: abundance fitness (aPCA) (normalised: wild type 0, dead -1); higher = more abundant; growth selection in yeast, the domain comes from the species named. The following applies: Homo sapiens.
“Scaffold attachment factor B2 K65P, Q14151” yielded an abundance fitness of -0.054 ± 0.18.

As for “Scaffold attachment factor B2 K65Q, Q14151”, the abundance fitness is -0.309 ± 0.28.

“Scaffold attachment factor B2 K65R, Q14151” registered an abundance fitness of -0.136 ± 0.099.

Substance “Scaffold attachment factor B2 K65T, Q14151” displayed an abundance fitness of 0.044 ± 0.17. “Scaffold attachment factor B2 K65V, Q14151” came in with an abundance fitness of -0.111 ± 0.086. For “Scaffold attachment factor B2 K65W, Q14151”, the abundance fitness was -0.269 ± 0.12. Substance “Scaffold attachment factor B2 K65Y, Q14151” gave an abundance fitness of -0.35 ± 0.16. “Scaffold attachment factor B2 L30A, Q14151” had an abundance fitness of -0.28 ± 0.099. On to “Scaffold attachment factor B2 L30C, Q14151”, for which the abundance fitness is -0.708 ± 0.094. In turn, “Scaffold attachment factor B2 L30D, Q14151” had an abundance fitness of -0.086 ± 0.15.

With “Scaffold attachment factor B2 L30E, Q14151”, the abundance fitness is -0.232 ± 0.094. Take “Scaffold attachment factor B2 L30F, Q14151”: the abundance fitness was -0.3 ± 0.12.

As for “Scaffold attachment factor B2 L30G, Q14151”, the abundance fitness is -0.281 ± 0.084. Substance “Scaffold attachment factor B2 L30I, Q14151” yielded an abundance fitness of 0.038 ± 0.14.

On to “Scaffold attachment factor B2 L30K, Q14151”, for which the abundance fitness was -0.461 ± 0.12. For “Scaffold attachment factor B2 L30M, Q14151” the value was -0.036 ± 0.12. On to “Scaffold attachment factor B2 L30P, Q14151”, for which the abundance fitness is -0.451 ± 0.14.

On to “Scaffold attachment factor B2 L30Q, Q14151”, for which the abundance fitness is -0.284 ± 0.14.

“Scaffold attachment factor B2 L30R, Q14151” had an abundance fitness of -0.272 ± 0.072. Then “Scaffold attachment factor B2 L30S, Q14151”, with -0.233 ± 0.095.

The substance “Scaffold attachment factor B2 L30T, Q14151” registered an abundance fitness of -0.345 ± 0.14.

Turning to “Scaffold attachment factor B2 L30W, Q14151”, the abundance fitness is -0.771 ± 0.076. Substance “Scaffold attachment factor B2 L30Y, Q14151” showed an abundance fitness of -0.086 ± 0.12. “Scaffold attachment factor B2 L33C, Q14151” yielded an abundance fitness of -0.758 ± 0.12. For “Scaffold attachment factor B2 L33D, Q14151” the value was -0.307 ± 0.12; for “Scaffold attachment factor B2 L33E, Q14151”, -0.072 ± 0.093. Then “Scaffold attachment factor B2 L33F, Q14151”, with -0.106 ± 0.23; and “Scaffold attachment factor B2 L33G, Q14151”, with -0.237 ± 0.076; and “Scaffold attachment factor B2 L33H, Q14151”, with -0.46 ± 0.25.

As for “Scaffold attachment factor B2 L33K, Q14151”, the abundance fitness was -0.319 ± 0.11. Take “Scaffold attachment factor B2 L33M, Q14151”: the abundance fitness amounted to 0.182 ± 0.11. “Scaffold attachment factor B2 L33N, Q14151” had an abundance fitness of -0.301 ± 0.3.

“Scaffold attachment factor B2 L33Q, Q14151” had an abundance fitness of -0.24 ± 0.096.

In turn, “Scaffold attachment factor B2 L33R, Q14151” returned an abundance fitness of -0.331 ± 0.075. “Scaffold attachment factor B2 L33S, Q14151”: the abundance fitness is -0.138 ± 0.097. “Scaffold attachment factor B2 L33T, Q14151”: the abundance fitness was -0.268 ± 0.1.

“Scaffold attachment factor B2 L33V, Q14151” returned an abundance fitness of -0.204 ± 0.072.

As to “Scaffold attachment factor B2 L33W, Q14151”, the abundance fitness is -0.103 ± 0.096. In the case of “Scaffold attachment factor B2 L33Y, Q14151”, the abundance fitness was -0.33 ± 0.32. In turn, “Scaffold attachment factor B2 L38A, Q14151” yielded an abundance fitness of -0.316 ± 0.077. As for “Scaffold attachment factor B2 L38C, Q14151”, the abundance fitness was -0.532 ± 0.1. For “Scaffold attachment factor B2 L38D, Q14151” the value was -0.746 ± 0.11; for “Scaffold attachment factor B2 L38F, Q14151”, -0.455 ± 0.2; for “Scaffold attachment factor B2 L38G, Q14151”, -0.664 ± 0.07. Then “Scaffold attachment factor B2 L38H, Q14151”, with -0.578 ± 0.13; and “Scaffold attachment factor B2 L38I, Q14151”, with -0.141 ± 0.13; and “Scaffold attachment factor B2 L38K, Q14151”, with -0.694 ± 0.12. “Scaffold attachment factor B2 L38M, Q14151” showed an abundance fitness of -0.139 ± 0.12. The substance “Scaffold attachment factor B2 L38N, Q14151” displayed an abundance fitness of -0.509 ± 0.17. In the case of “Scaffold attachment factor B2 L38P, Q14151”, the abundance fitness was -0.637 ± 0.1. As for “Scaffold attachment factor B2 L38R, Q14151”, the abundance fitness is -0.787 ± 0.076. For the substance “Scaffold attachment factor B2 L38S, Q14151”, the abundance fitness is -0.506 ± 0.094.

In turn, “Scaffold attachment factor B2 L38T, Q14151” displayed an abundance fitness of -0.544 ± 0.099. On to “Scaffold attachment factor B2 L38V, Q14151”, for which the abundance fitness is -0.863 ± 0.076. Then “Scaffold attachment factor B2 L38W, Q14151”, with -0.791 ± 0.092; and “Scaffold attachment factor B2 L38Y, Q14151”, with -0.612 ± 0.15; and “Scaffold attachment factor B2 L42A, Q14151”, with -0.325 ± 0.085. Substance “Scaffold attachment factor B2 L42C, Q14151” showed an abundance fitness of -0.181 ± 0.11. Turning to “Scaffold attachment factor B2 L42E, Q14151”, the abundance fitness was -0.381 ± 0.084. Then “Scaffold attachment factor B2 L42F, Q14151”, with -0.994 ± 0.16; and “Scaffold attachment factor B2 L42G, Q14151”, with -0.439 ± 0.07.

“Scaffold attachment factor B2 L42M, Q14151” yielded an abundance fitness of -0.505 ± 0.16. For “Scaffold attachment factor B2 L42N, Q14151” the value was -0.606 ± 0.12; for “Scaffold attachment factor B2 L42P, Q14151”, -0.358 ± 0.12; for “Scaffold attachment factor B2 L42Q, Q14151”, -0.827 ± 0.29. Then “Scaffold attachment factor B2 L42R, Q14151”, with -0.668 ± 0.077. Then “Scaffold attachment factor B2 L42S, Q14151”, with -0.697 ± 0.089; and “Scaffold attachment factor B2 L42T, Q14151”, with -0.44 ± 0.12; and “Scaffold attachment factor B2 L42W, Q14151”, with -1.1 ± 0.083.
